The record followed here is patent US20240132578A1.

The IC50 is the concentration at which inhibition is half-maximal.

Holding throughout (assay): cell-based or functional assay
The target of experiment [1] is HIV-1 92RW020 envelope (Env) on pseudovirus (HIV-1).
Experiment [2] has as its target HIV-1 92RW021 envelope glycoprotein (Env) on pseudovirus (HIV-1 (clade A)).
For experiment [3], the target named is HIV-1 94UG103 envelope (Env) on pseudovirus (HIV-1).
Experiment [4] has as its target HIV-1 Env of isolate 92UG031 (clade A pseudovirus) (HIV-1).
Experiment [5] addresses HIV-1 Env of isolate 92UG046 (clade D pseudovirus) (HIV-1).
The target of experiment [6] is HIV-1 Env of isolate 94UG103 (Clade A) (HIV-1).
In experiment [7] the target is HIV-1 Env of isolate CAAN.A2 (Acute), clade B (HIV-1).
In experiment [8] the target is HIV-1 Env of isolate MGRM-Chronic-B-008, clade B (HIV-1).
The target of experiment [9] is HIV-1 Env of pseudovirus MGRM-F1-020 (clade F) (HIV-1).
Experiment [10] deals with HIV-1 Env of pseudovirus MGRM-G-015 (HIV-1).
The target in experiment [11] is HIV-1 MGRM-AG-013 Env (pseudovirus) (HIV-1).
Experiment [12] has as its target HIV-1 envelope glycoprotein (Env) of isolate MGRM-C-001 (HIV-1).

A value given as a limit tells only on which side of the number the result lay.

Chain of 1443_C16 (PG16) (TCN-116) (antibody) (VH): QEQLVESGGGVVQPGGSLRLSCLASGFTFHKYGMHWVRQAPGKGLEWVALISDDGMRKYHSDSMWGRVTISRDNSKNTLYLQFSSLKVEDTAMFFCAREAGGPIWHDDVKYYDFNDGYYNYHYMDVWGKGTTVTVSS
Chain of 1443_C16 (PG16) (TCN-116) (antibody) (VL): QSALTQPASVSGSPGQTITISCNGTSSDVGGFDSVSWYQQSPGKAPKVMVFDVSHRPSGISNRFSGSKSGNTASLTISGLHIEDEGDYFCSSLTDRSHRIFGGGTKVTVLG

Regarding 4E10 (antibody), the neutralization IC50 was 3.38 µg/mL in experiment [1] and 9.7 µg/mL in [3]. Besides, the IC50 (µg/ml), pseudovirus neutralization came to 4.87 µg/mL in [2]; 4.94 µg/mL in experiment [4]; 17.9 µg/mL in [7]; 16.7 µg/mL in [8]; 1.07 µg/mL in experiment [10]; 2.61 µg/mL in experiment [11]. The IC50 (µg/ml), pseudovirus neutralization in experiment [12] was determined as 5.66 µg/mL. The same substance had an IC50, pseudovirus neutralization in experiment [5] of 12.2 µg/mL. The substance further displayed an IC90 (neutralization of pseudovirus) in experiment [6] of more than 50 µg/mL. This substance also registered an IC50 in [9] of 0.66 µg/mL.
On to b12 (antibody), for which the neutralization IC50 in experiment [1] was more than 50 µg/mL; in experiment [3], 3.54 µg/mL. Moreover, the IC50 (µg/ml), pseudovirus neutralization is more than 50 µg/mL in experiment [2]; more than 50 µg/mL in experiment [4]; more than 50 µg/mL in experiment [7]; 2.82 µg/mL in experiment [8]; more than 50 µg/mL in [10]; more than 50 µg/mL in experiment [11]. The IC50 (µg/ml), pseudovirus neutralization in experiment [12] was more than 50 µg/mL. Moreover, the IC50, pseudovirus neutralization in [5] turned out to be 0.07 µg/mL. In experiment [6], the IC90 (neutralization of pseudovirus) worked out at 47.3 µg/mL. Also, in experiment [9], the IC50 is more than 50 µg/mL.
In the case of 1443_C16 (PG16) (TCN-116) (antibody), the neutralization IC50 was 0.004 µg/mL in experiment [1] and 0.008 µg/mL in experiment [3]. The IC50 (µg/ml), pseudovirus neutralization in experiment [2] came to 0.11 µg/mL; in [4], 0.43 µg/mL; in [7], 8.83 µg/mL; in [8] it was 0.73 µg/mL; in [10], 5.33 µg/mL; in experiment [11] it was 0.31 µg/mL. In experiment [12], this substance had an IC50 (µg/ml), pseudovirus neutralization of 16.8 µg/mL. The substance further had an IC50, pseudovirus neutralization in experiment [5] of 1.42 µg/mL. Besides, the IC90 (neutralization of pseudovirus) in experiment [6] was 1.59 µg/mL. Also, the IC50 in [9] came out at 4.35 µg/mL.
As to 1495_C14 (PGC14) (antibody), the figures for the neutralization IC50 in experiment [1] and in experiment [3] were 28.6 µg/mL and more than 50 µg/mL, respectively. Besides, the IC50 (µg/ml), pseudovirus neutralization in [2], in experiment [4], in experiment [7], in experiment [8], in experiment [10] and in experiment [11] was more than 50 µg/mL in each case. The same substance had an IC50 (µg/ml), pseudovirus neutralization in experiment [12] of more than 50 µg/mL. This substance returned an IC50, pseudovirus neutralization in experiment [5] of more than 50 µg/mL. Moreover, in [9], the half-maximal inhibitory concentration (IC50) is more than 50 µg/mL.
On to 2G12 (antibody), for which the results for the neutralization IC50 in [1] and in [3] were 0.56 µg/mL and more than 50 µg/mL, respectively. Moreover, the IC50 (µg/ml), pseudovirus neutralization in experiment [2] is more than 50 µg/mL; in experiment [4] it was more than 50 µg/mL; in [7] it was more than 50 µg/mL; in experiment [8], 0.55 µg/mL; in experiment [10] it was more than 50 µg/mL; in [11], 0.95 µg/mL. In experiment [12], this substance yielded an IC50 (µg/ml), pseudovirus neutralization of 2.93 µg/mL. Also, the IC50, pseudovirus neutralization in [5] is more than 50 µg/mL. Also, the IC90 (neutralization of pseudovirus) in experiment [6] was more than 50 µg/mL. The substance also yielded a concentration for half-maximal inhibition (IC50) in [9] of more than 50 µg/mL.
As to 2F5 (antibody), the neutralization IC50 in [1] is 3.37 µg/mL; in experiment [3], 3.79 µg/mL. The IC50 (µg/ml), pseudovirus neutralization in experiment [2] was 4.16 µg/mL; in [4], 3.81 µg/mL; in experiment [7], 23.1 µg/mL; in experiment [8] it was more than 50 µg/mL; in experiment [10] it was 0.43 µg/mL; in experiment [11], 1.79 µg/mL. Moreover, the IC50 (µg/ml), pseudovirus neutralization in experiment [12] is more than 50 µg/mL. The substance further registered an IC50, pseudovirus neutralization in experiment [5] of more than 50 µg/mL. In addition, the IC90 (neutralization of pseudovirus) in experiment [6] came to 46.6 µg/mL. In experiment [9], this substance returned an IC50 of 0.59 µg/mL.
